T1: CTNNB1 wild type (S37) peptide on HLA-A*02:01 (human)
T1 peptide: YLDSGIHSGA

T2: CTNNB1 S37F peptide on HLA-A*02:01 (human)
T2 peptide: YLDSGIHFGA

B1: inventive TCR specific for the mutated CTNNB1^S37F peptide in the context of HLA-A2, with murine constant regions, expressed from lentiviral vector pCDH-CTNNB1 … (TCR)
TCR alpha: AQKVTQAQTEISVVEKEDVTLDCVYETRDTTYYLFWYKQPPSGELVFLIRRNSFDEQNEISGRYSWNFQKSTSSFNFTITASQVVDSAVYFCALSERPGYSTLTFGKGTMLLVSPDIQNPEPAVYQLKDPRSQDSTLCLFTDFDSQINVPKTMESGTFITDKTVLDMKAMDSKSNGAIAWSNQTSFTCQDIFKETNATYPSSDVPCDATLTEKSFETDMNLNFQNLSVMGLRILLLKVAGFNLLMTLRLWSS
TCR beta: DAGVIQSPRHEVTEMGQEVTLRCKPISGHDYLFWYRQTMMRGLELLIYFNNNVPIDDSGMPEDRFSAKMPNASFSTLKIQPSEPRDSAVYFCASGTPSTYEQYFGPGTRLTVTEDLRNVTPPKVSLFEPSKAEIANKQKATLVCLARGFFPDHVELSWWVNGKEVHSGVSTDPQAYKESNYSYCLSSRLRVSATFWHNPRNHFRCQVQFHGLSEEDKWPEGSPKPVTQNISAEAWGRADCGITSASYQQGVLSATILYEILLGKATLYAVLVSTLVVMAMVKRKNS
B2: CTNNB1^S37F peptide specific TCR (the inventive TCR) (TCR, V domains shown)
Valpha: AQKVTQAQTEISVVEKEDVTLDCVYETRDTTYYLFWYKQPPSGELVFLIRRNSFDEQNEISGRYSWNFQKSTSSFNFTITASQVVDSAVYFCALSERPGYSTLTFGKGTMLLVSP
Vbeta: DAGVIQSPRHEVTEMGQEVTLRCKPISGHDYLFWYRQTMMRGLELLIYFNNNVPIDDSGMPEDRFSAKMPNASFSTLKIQPSEPRDSAVYFCASGTPSTYEQYFGPGTRLTVT

How the values were obtained:
[1] = target: mutated CTNNB1^S37F peptide presented by HLA-A2 on target cells (T2 cells pulsed with the peptide; HUTU80 tumor cells with endogenous CTNNB1^S37F) (human); experiment: cell-based or functional assay
[2] = target: T1, CTNNB1 wild type (S37) peptide on …; experiment: activation reporter or marker
[3] = target: T2, CTNNB1 S37F peptide on HLA-A*02:01; experiment: CD69 by flow cytometry on GFP+ JRT (J.RT3-T3.5) cells transduced with pCDH-CTNNB1; T2 cells pulsed with a 10x dilution series of peptide from 1 µg/ml, 16 h; dose-dependent; full-length, on cells
[4] = target: T2, CTNNB1 S37F peptide on HLA-A*02:01; experiment: CD137 by flow cytometry on GFP+ CD8+ PBMC-derived T cells transduced with pCDH-CTNNB1; T2 cells pulsed with a 10x dilution series of peptide from 1 µg/ml, 24 h; dose-dependent; full-length, on cells

Binder	percentage of CD8+CD137+ cells in gated GFP+ transduced PBMC T cells after 24 h co-culture with peptide-pulsed T2 cells; lowest peptide concentration giving a twofold increase over no peptide [1] [ng/mL]	percentage of CD69+ cells in gated GFP+ JRT cells after 16 h co-culture with peptide-pulsed T2 cells; lowest peptide concentration giving a twofold increase over no peptide [1] [ng/mL]	binding result [2]	lowest activating peptide concentration (twofold CD69+ over no peptide) [3] [ng/mL]	lowest activating peptide concentration (twofold CD8+CD137+ over no peptide) [4] [ng/mL]
B1	1	0.5	–	–	–
B2	–	–	no recognition	~0.5	1

Reference: patent publication US20240390423A1 (published 2024)
